Tests used:
[1] = test system: […]{LYS(N3)} peptide-linker conjugate, PEG4 linker (Table 6 entry 11)
[2] = test system: […]{LYS(N3)} peptide-linker conjugate, oligo linker (Table 6 entry 10)
[3] = test system: […]{LYS(N3)} peptide-linker conjugate, oligo linker (Table 6 entry 9)
[4] = test system: […]{LYS(N3)} peptide-linker conjugate, oligo linker (Table 6 entry 8)

Y. pestis proline iminopeptidase was tested, and the “Cleaved by PIP” value [1] was “Yes”, the “Cleaved by PIP” value [2] was “No” and the “Cleaved by PIP” value [3] was “Yes”. The “Cleaved by PIP” value [4] was “Yes”.

From patent US20250283886
